Series [1] has as its system Saccharomyces cerevisiae. Put plainly: protein stability index of tFT-peptide fusion (C-terminal peptide) (PSI (0-1 scale)); higher = more stable (slower turnover). Particulars: genetic background: wild type; temperature: 30 C.
Series [2] concerns Saccharomyces cerevisiae. The series is described as above. On the procedure:
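MPS profiling in S. cerevisiae of the tFT-X12 degron library: putative degron peptides plus stable controls, 12 aa, fused to the C-terminus of a sfGFP-mCherry timer. Cells are FACS-sorted into 8 mCherry/sfGFP bins and deep-sequenced. PSI runs from 0 (unstable) to 1 (stable). Backgrounds are wild type, das1Δ and doa10Δ at 30 °C, and wild type, das1Δ, cdc34-1 and cdc53-1 at 37 °C; 2-3 technical replicates each.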

[3] abbreviates: genetic background: cdc34-1, temperature: 37 C.
[4] abbreviates: genetic background: cdc53-1, temperature: 37 C.
Where [5] appears, read: genetic background: das1 deletion, temperature: 30 C.
Where [6] appears, read: genetic background: das1 deletion, temperature: 37 C.
The mark [7] stands for this setting: genetic background: doa10 deletion, temperature: 30 C.
The mark [8] stands for this setting: genetic background: wild type, temperature: 30 C.
The mark [9] stands for this setting: genetic background: wild type, temperature: 37 C.

± gives the standard deviation of the averaged measurements.
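Further: PSI is a weighted mean of sequencing reads over stability bins, variants kept only with over 10 reads, mCherry proximal and sfGFP distal, peptide attached via GGGS linker.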

As to ASVCLNVIYQLV, the protein stability index is 0.268 ± 0.036 in the series on Saccharomyces cerevisiae [1]; 0.515 ± 0.024 in the series on Saccharomyces cerevisiae [2] (setting [3]); 0.451 ± 0.0053 with Saccharomyces cerevisiae [2] (setting [4]); 0.288 ± 0.027 with Saccharomyces cerevisiae [2] (setting [5]); 0.471 ± 0.013 in the series on Saccharomyces cerevisiae [2] (setting [6]); 0.1572 ± 0.0011 in the series on Saccharomyces cerevisiae [2] (setting [7]). Besides, the protein stability index with Saccharomyces cerevisiae [2] (setting [8]) was found to be 0.164 ± 0.018; in the series on Saccharomyces cerevisiae [2] (setting [9]), 0.222 ± 0.024.
For AVLFAPPLSSNF, the protein stability index in the series on Saccharomyces cerevisiae [1] came to 0.729 ± 0.052; in the series with Saccharomyces cerevisiae [2] (setting [3]) it was 0.712 ± 0.03; in the series with Saccharomyces cerevisiae [2] (setting [4]) it was 0.78169 ± 0.00024; in the series on Saccharomyces cerevisiae [2] (setting [5]), 0.64 ± 0.014; in the series on Saccharomyces cerevisiae [2] (setting [6]) it was 0.7729 ± 0.0067; with Saccharomyces cerevisiae [2] (setting [7]), 0.657 ± 0.026. Further, the protein stability index was found to be 0.6489 ± 0.0039 with Saccharomyces cerevisiae [2] (setting [8]) and 0.739 ± 0.0078 in the series on Saccharomyces cerevisiae [2] (setting [9]).
For AVSFVTLSIMVM, the protein stability index in the series with Saccharomyces cerevisiae [1] came out at 0.195 ± 0.032; in the series with Saccharomyces cerevisiae [2] (setting [3]) it was 0.0451 ± 0.007; in the series on Saccharomyces cerevisiae [2] (setting [4]), 0.0958 ± 0.092; in the series on Saccharomyces cerevisiae [2] (setting [5]) it was 0.153 ± 0.016; in the series on Saccharomyces cerevisiae [2] (setting [6]) it was 0.163 ± 0.0065; in the series with Saccharomyces cerevisiae [2] (setting [7]), 0.135 ± 0.005. Besides, the figures for the protein stability index with Saccharomyces cerevisiae [2] (setting [8]) and with Saccharomyces cerevisiae [2] (setting [9]) were 0.157 ± 0.018 and 0.1217 ± 0.0011, respectively.
For the sequence AWVEVYVISIGV, the protein stability index in the series with Saccharomyces cerevisiae [1] worked out at 0.19 ± 0.032; with Saccharomyces cerevisiae [2] (setting [3]) it was 0.192 ± 0.024; in the series on Saccharomyces cerevisiae [2] (setting [4]), 0.257 ± 0.0074; in the series with Saccharomyces cerevisiae [2] (setting [5]), 0.161 ± 0.022; in the series with Saccharomyces cerevisiae [2] (setting [6]), 0.324 ± 0.012; in the series on Saccharomyces cerevisiae [2] (setting [7]) it was 0.132 ± 0.0032. The protein stability index in the series on Saccharomyces cerevisiae [2] (setting [8]) is 0.153 ± 0.011; in the series on Saccharomyces cerevisiae [2] (setting [9]), 0.2966 ± 0.0016.
On to CAGLLSVSFWLF, for which the protein stability index in the series with Saccharomyces cerevisiae [1] was determined as 0.499 ± 0.0012; with Saccharomyces cerevisiae [2] (setting [3]), 0.516 ± 0.024; with Saccharomyces cerevisiae [2] (setting [4]), 0.589 ± 0.037; in the series on Saccharomyces cerevisiae [2] (setting [5]) it was 0.44 ± 0.033; in the series with Saccharomyces cerevisiae [2] (setting [6]) it was 0.597 ± 0.022; in the series with Saccharomyces cerevisiae [2] (setting [7]), 0.351 ± 0.0039. Also, the protein stability index with Saccharomyces cerevisiae [2] (setting [8]) is 0.381 ± 0.017; in the series with Saccharomyces cerevisiae [2] (setting [9]), 0.552 ± 0.0056.
As for CFATTCLRCKWV, the protein stability index in the series with Saccharomyces cerevisiae [1] came to 0.484 ± 0.014; in the series on Saccharomyces cerevisiae [2] (setting [3]) it was 0.692 ± 0.038; in the series on Saccharomyces cerevisiae [2] (setting [4]) it was 0.738 ± 0.035; with Saccharomyces cerevisiae [2] (setting [5]), 0.645 ± 0.033; with Saccharomyces cerevisiae [2] (setting [6]), 0.739 ± 0.028; in the series on Saccharomyces cerevisiae [2] (setting [7]), 0.425 ± 0.011. The protein stability index in the series on Saccharomyces cerevisiae [2] (setting [8]) came to 0.459 ± 0.022; in the series on Saccharomyces cerevisiae [2] (setting [9]), 0.631 ± 0.027.
Consider CFCVSVHVWLLM, for which the protein stability index in the series on Saccharomyces cerevisiae [1] turned out to be 0.147 ± 0.04; with Saccharomyces cerevisiae [2] (setting [3]), 0.112 ± 0.028; in the series on Saccharomyces cerevisiae [2] (setting [4]), 0.238 ± 0.046; in the series on Saccharomyces cerevisiae [2] (setting [5]), 0.199 ± 0.038; in the series on Saccharomyces cerevisiae [2] (setting [6]) it was 0.342 ± 0.017; in the series with Saccharomyces cerevisiae [2] (setting [7]), 0.0493 ± 0.017. For the same sequence, the protein stability index came to 0.069 ± 0.018 in the series with Saccharomyces cerevisiae [2] (setting [8]) and 0.105 ± 0.017 in the series with Saccharomyces cerevisiae [2] (setting [9]).
Regarding CFFLLLRVSLFP, the protein stability index stood at 0.239 ± 0.028 in the series on Saccharomyces cerevisiae [1]; 0.08149 ± 0.00038 with Saccharomyces cerevisiae [2] (setting [3]); 0.112 ± 0.024 in the series with Saccharomyces cerevisiae [2] (setting [4]); 0.143 ± 0.032 with Saccharomyces cerevisiae [2] (setting [5]); 0.257 ± 0.0087 in the series with Saccharomyces cerevisiae [2] (setting [6]); 0.142 ± 0.0027 in the series on Saccharomyces cerevisiae [2] (setting [7]). For the same sequence, the protein stability index with Saccharomyces cerevisiae [2] (setting [8]) was determined as 0.145 ± 0.025; in the series on Saccharomyces cerevisiae [2] (setting [9]), 0.218 ± 0.011.
As for CFSLLFYTLSLL, the protein stability index stood at 0.351 ± 0.018 in the series on Saccharomyces cerevisiae [1]; 0.47 ± 0.029 in the series with Saccharomyces cerevisiae [2] (setting [3]); 0.499 ± 0.0054 in the series with Saccharomyces cerevisiae [2] (setting [4]); 0.393 ± 0.022 in the series with Saccharomyces cerevisiae [2] (setting [5]); 0.5305 ± 0.0034 in the series with Saccharomyces cerevisiae [2] (setting [6]); 0.2695 ± 0.00095 with Saccharomyces cerevisiae [2] (setting [7]). The protein stability index in the series on Saccharomyces cerevisiae [2] (setting [8]) turned out to be 0.274 ± 0.021; with Saccharomyces cerevisiae [2] (setting [9]), 0.409 ± 0.0057.
Consider CFVICVCLCFGR, for which the protein stability index with Saccharomyces cerevisiae [1] is 0.35 ± 0.025; with Saccharomyces cerevisiae [2] (setting [3]), 0.229 ± 0.044; in the series with Saccharomyces cerevisiae [2] (setting [4]), 0.3626 ± 0.002; with Saccharomyces cerevisiae [2] (setting [5]), 0.232 ± 0.018; in the series on Saccharomyces cerevisiae [2] (setting [6]), 0.416 ± 0.015; in the series on Saccharomyces cerevisiae [2] (setting [7]), 0.206 ± 0.0033. Further, the protein stability index was found to be 0.21 ± 0.026 in the series with Saccharomyces cerevisiae [2] (setting [8]) and 0.371 ± 0.0092 in the series on Saccharomyces cerevisiae [2] (setting [9]).
For CGSLDLPHQCLL, the protein stability index in the series on Saccharomyces cerevisiae [1] is 0.744 ± 0.059; with Saccharomyces cerevisiae [2] (setting [3]) it was 0.7247 ± 0.0066; in the series with Saccharomyces cerevisiae [2] (setting [4]), 0.7844 ± 0.0062; in the series with Saccharomyces cerevisiae [2] (setting [5]) it was 0.677 ± 0.0093; in the series with Saccharomyces cerevisiae [2] (setting [6]), 0.7545 ± 0.0062; in the series on Saccharomyces cerevisiae [2] (setting [7]), 0.691 ± 0.048. For the same sequence, the protein stability index amounted to 0.693 ± 0.01 in the series with Saccharomyces cerevisiae [2] (setting [8]) and 0.774 ± 0.0033 in the series on Saccharomyces cerevisiae [2] (setting [9]).
In the case of CICAFCSLNLLC, the protein stability index in the series on Saccharomyces cerevisiae [1] turned out to be 0.435 ± 0.011; with Saccharomyces cerevisiae [2] (setting [3]), 0.695 ± 0.01; with Saccharomyces cerevisiae [2] (setting [4]) it was 0.774 ± 0.016; in the series on Saccharomyces cerevisiae [2] (setting [5]) it was 0.61 ± 0.012; in the series with Saccharomyces cerevisiae [2] (setting [6]), 0.765 ± 0.011; in the series with Saccharomyces cerevisiae [2] (setting [7]), 0.289 ± 0.0064. For the same sequence, the figures for the protein stability index in the series on Saccharomyces cerevisiae [2] (setting [8]) and in the series on Saccharomyces cerevisiae [2] (setting [9]) were 0.324 ± 0.023 and 0.607 ± 0.013, respectively.
As for CIHMNCSMMIIS, the protein stability index in the series with Saccharomyces cerevisiae [1] was 0.135 ± 0.0034; in the series on Saccharomyces cerevisiae [2] (setting [3]) it was 0.0533 ± 0.045; in the series on Saccharomyces cerevisiae [2] (setting [4]), 0.084 ± 0.0027; with Saccharomyces cerevisiae [2] (setting [5]), 0.168 ± 0.0061; in the series on Saccharomyces cerevisiae [2] (setting [6]), 0.0659 ± 0.029; in the series on Saccharomyces cerevisiae [2] (setting [7]), 0.169 ± 0.0045. Also, the protein stability index was 0.132 ± 0.036 in the series with Saccharomyces cerevisiae [2] (setting [8]) and 0.0482 ± 0.035 in the series on Saccharomyces cerevisiae [2] (setting [9]).
With CKGPPVKFIVLM, the protein stability index in the series on Saccharomyces cerevisiae [1] is 0.225 ± 0.057; with Saccharomyces cerevisiae [2] (setting [3]) it was 0.614 ± 0.018; in the series on Saccharomyces cerevisiae [2] (setting [4]), 0.7111 ± 0.0044; in the series with Saccharomyces cerevisiae [2] (setting [5]), 0.597 ± 0.03; in the series with Saccharomyces cerevisiae [2] (setting [6]), 0.7359 ± 0.0039; in the series with Saccharomyces cerevisiae [2] (setting [7]), 0.135 ± 0.0034. The figures for the protein stability index in the series on Saccharomyces cerevisiae [2] (setting [8]) and in the series with Saccharomyces cerevisiae [2] (setting [9]) were 0.147 ± 0.028 and 0.243 ± 0.023, respectively.
Turning to CKYCKCVVLLWS, the protein stability index in the series with Saccharomyces cerevisiae [1] turned out to be 0.434 ± 0.037; with Saccharomyces cerevisiae [2] (setting [3]) it was 0.53 ± 0.052; in the series on Saccharomyces cerevisiae [2] (setting [4]), 0.605 ± 0.013; in the series with Saccharomyces cerevisiae [2] (setting [5]), 0.385 ± 0.037; with Saccharomyces cerevisiae [2] (setting [6]), 0.6012 ± 0.00065; with Saccharomyces cerevisiae [2] (setting [7]), 0.2932 ± 0.0013. Further, the protein stability index in the series with Saccharomyces cerevisiae [2] (setting [8]) amounted to 0.334 ± 0.034; with Saccharomyces cerevisiae [2] (setting [9]) it was 0.536 ± 0.01.
For the sequence CLFFLVYELSIL, the protein stability index in the series on Saccharomyces cerevisiae [1] amounted to 0.317 ± 0.021; in the series on Saccharomyces cerevisiae [2] (setting [3]), 0.256 ± 0.017; with Saccharomyces cerevisiae [2] (setting [4]), 0.352 ± 0.048; in the series with Saccharomyces cerevisiae [2] (setting [5]) it was 0.257 ± 0.023; in the series on Saccharomyces cerevisiae [2] (setting [6]), 0.434 ± 0.016; with Saccharomyces cerevisiae [2] (setting [7]), 0.2162 ± 0.00051. Also, the protein stability index in the series on Saccharomyces cerevisiae [2] (setting [8]) is 0.246 ± 0.0069; in the series with Saccharomyces cerevisiae [2] (setting [9]) it was 0.387 ± 0.0045.
